The nature of this data set: label from the status in PepcDB records.

As to “MAGATDRDGWKVERGDDSWTVPGYIDLKKLGKGGAGRVMIARHAGTGRNVAIKYLNEELCSKVEFRTALRAEARLLGGLTSPHVTRLYEYVEAEQGAAIVMELVYGAALRTLLKKEGSTDIEAALVVLKGSLLGLAAAHGVGVVHRDYKPENVLVNWDGQTKLVDFGISARTGDRHNLRGTCAYMPPEQWKLEAATPAGDVYAATATLYECVTGVRPFEGPEPWDFQRQHVDEPVPMDRVPEEVRALVRHGMAKDPALRPPSALDFLRELEWAAENAYGPDWEERGQSRLAAVAAALVPLAISRLDARLVGSSAELARTVLTARRRSRLRRRGDVLTGAAAVAVVGLLSLMPSGWAAGGAEGHAGAHAQAVTRLDARKDTGSATEARGTEHGDTAESDPDSDRAGTSGAQGGGGHGDGGAGLAPADGGTRSDSGSGGGAGDSGTDSPDDGNNTVERNGGTENGGTENGGTENGGTENGGTENGGTENGGTENGGTENGGTENGGTENGGTENGGTENGGTENGGTENGGTENGGTENGGTENGGTENGGTENGGTENGGTENGGTENGGTENGGTENGGTENGGTENGGTDNGGTDNGGTDNGGTDARHGHSNAGTSDGDPASTGGTDSGNSAGGTGTGTGSGSTSAVTPRQGDPAAVEGEPG”, the protein production entry is given as “failed”.

For “MAGEDSFERIALEWHARHMANKSESHATKTLERLRKDVFPWIGNRPVREITAPELLSVLRRIESRGAIELCHVTKRICGQVMRYAIATGRAERDPAADLKGALQPVKARHLEHHHHHH”, the protein production entry was “failed”.

With “MAGENFATPFHGHVGRGAFSDVYEPAEDTFLLLDALEAAAAELAGVEICLEVGSGSGVVSAFLASMIGPQALYMCTDINPEAAACTLETARCNKVHIQPVITDLVKGLLPRLTEKVDLLVFNPPYVVTPPQEVGSHGIEAAWAGGKNGREVMDRFFPLVPDLLSPKGLFYLVTIKENNPEEILKIMKTKGLQGTTALSRQAGQETLSVLKFTKS”, the protein production entry is recorded as “failed”.

On to “MAGGTKRLPRAVREQQMLDAAVDVFSDRGFHETSMDAIAAKAEISKPMLYLYYGSKDELFAACIQREGLRFVEALAPAGDPGLSPREQLRRALEGFLGFVGKHRKSWMVLYRQAMGQQAFVGSVQSSRDRLIELTAHLLESSTKDPEPGQDFELIAIALVGAGEAVADRVAGGEIEVDAAADLLESLAWRGLAGKKKPE”, for which the protein production entry is on record as “not failed”.

With “MAGGYGVRSPGPCVQCLARPMTTPFWPGRERCASLASRDAFAARLFKRQKMESFLVSTGIVALAEMGDKTQLLSLVLAARYRKPIPIILGILIATLVNHGFAGALGGWITGMVGVDLLRWILGLGFIAMAGWMLIPDKLDDAEEAKPVKGALGILGTTIIAFFFAEMGDKTQIATVALAARFHGEVIAVVAGTTFGMMLANAPAVLLGDRFANKMPIALVHKIAAAIFLVLGLLALFNVGG”, the protein production entry is given as “failed”.

For “MAGLVKKTTGLVGLAVCDTPHERLTILYTKILDLLKHFPKHAAYRKYTEQITSEKLELVKLEPDVKKLENLLQGGEVEEVILQAEKELSLARKMLQWKPWEPLVEEPPANQWKWPI”, the protein production entry is on record as “failed”.

As to “MAGRFAPRPPRAVVRDGIPRQALAPGRVRVWAPDGPLDVGLVLGPLRRGPGDPTFRTMPDGSVWRTGRTPAGPGTLRVTARGGEVRGEAWGPGAEWLLERLPLMLGAEDDPSAFVPRHRLLAVTAHRRPGLRLTRTGLVLESLIPSILEQKVTTLEAYQAWRLLVRKFGEPAPGPAPGRMCVMPAARTWALIPSWEWHLAGVDDKRASTVLRAVRVAARLEEAAGMEPAAARERLELVPGVGPWTSAETVQRSHGAPDAVTVGDLHLPGIVGFALGGDRYADDAEMLRLLEPYAGQRHRAARLVLLSGRVPERRAPRMAPRGIERL”, the protein production entry is on record as “failed”.

Turning to “MAGTSQMNNGRSWMQGEKMIPNKDDAEEFANKAKNAVNSGDYDGAIADIERAIKASPRSVPYHLIKADALYRKGDYEDALDVLNFAETIEKNNPELLSLKSICYGSLGKFNESKIEATKAIKADPNYPFAYYNRAKAEQYLEEYDIAKKDLQKYLEMQPNDPDAYMDLADMEYHEGDYKKALQHVNTAIKKDKESTDAHDLKLNILLAQKDIENYLKELLEAFKDTEDFKYIGTLVETLKSVGSFDTAEDILKEFIKIYKDEPFLYDALARVYYDQDRKDDAYRTYEELLKSNDDREAKIYWFDFLLDDGSYDRLIGEIEKSGLKDDEVLEIKYIAEDQKGDHKAALSTADDLLKLDRTPYNTSLYGSQLRKLGRLDESIKALSEFDDDPDVAYELFLAYMDRGDVHSASKYLKTSIENSEDDDDVISNVLEGVSKMMDHSDFQSVNDFLDGLGKENDNLYILTEAMHAINSGVFEGYEKGKEKFLGLDEHKEEVCEFANNIVELTEGKAKAFLEKFIEDNCGENEMEE”, the protein production entry was “failed”.

Turning to “MAGWGIRSITGTSKLRAAMLLVVVGLLSVSGWLQRLDWLVYDEIISRQSFQPDSDIVIVAIDEESLRTIGKWPWSRELHAGLIDRLSQIGSNVVALDLLLSEPDVDHPEADKRLKTAIFTHGNVVLPVAPAQNASGDRFSLIQPLASLQRRATLGHVDVELDRDGVARRTFLYAGIDIPAFPALGLALADKGSLPNRMRLLSRMPEADKTIVNTGNSWVRSREIMVPFAGPPGTYPRISYARLLNDDDLLDDLRGKIIIVGMTATGLQQGFLTPVSLTRHNYMSGVEWHASVVDMLRNGRSIYPVPEMVAIAVTVLWVLAVLLVVNIVPGRFRSLVLLVSLAAGIGLVTMLLGVFHIWLPPGVALIGTLAVYPLQSWQRINEFIQSQFITGSCLQAVFDSVQEGVITVDAKGNILYLNQESERILGARSEQLIGKPLEQLIGVCLIPDKQDRDVNGSGSADTRPDSRIQHCVLTLPSGDRRTIRVTHRALYDRWRIPAGAVVTISDISDTLEMKQQIARQANYDVLTMLPSRNFLLSRFGELAVSARQHGAALIVCLVSVDNFSKINDAFGYHSGDALLKMIADRLLKLVCSEDLIARWSGDEFMLVVDRPVREGQELQFARKVQETINRRFEINGQEVFISASIGIRISSQPDQVDEKSEIFLDEAVSAMRRVKRQGGNGFQFYASGQMNAWTREQLEFERDFRLAIENQDKALHVLFQPIVDVQQKRVVHNEVLVRWAHPTRGLLSPGDFIPLAERVGLIGQLGDLVLWISCRIAADLAKVGQAVDISVNVASRQLLHPDFLQKVAGVLERTGLPAGRLMLEITESAVISDLPRAAEALVRLKALGVAIALDDFGTGYSSLSLLRELPLDILKIDKSFIQGIEQDHPGDEKFDFAIARAIIALGDNLGLGVIAEGVETEKHMEFLRKHHCYLQQGYYFSRPLSTTQLMQFMGRPDSIRV”, the protein production entry is recorded as “failed”.

Consider “MAHHHHHHMAITLPKLKYALNALSPHISEETLSFHYNKHHAGYVNKLNGLIKDTPLANKSLTDILKESTGAIFNNAAQIWNHSFYWDSMGPNCGGEPHGEIKEKIQEDFGSFNNFKDQFSNVLCGHFGSGWGWLALNKNNKLVILQTHDAGNPIKENTGIPILTCDVWEHAYYIDYRNDRLSYVKAWWNLVNWNFANENLKNALNK”, for which the protein production entry is “not failed”.

For the sequence “MAHIFVYGTLKRGQPNHKVMLDHSHGLAAFRGRGCTVESFPLVIAGEHNIPWLLYLPGKGHCVTGEIYEVDEQMLRFLDDFEDCPSMYQRTALQVQVLEWEGDGDPGDSVQCFVYTTATYAPEWLFLPYHESYDSEGPHGLRYNPRENR”, the protein production result is listed as “not failed”.

On to “MAIEPDLGLDSTEPKLFSARLKPHRALSHNGFLILIGLVGTASFAAGLAFWLIGAWPVFGFFGLDVLALAFAFKVSFARARASEEISMTCSELRVRRTSARGEVAEWVLNPLWVRLEKIVHHDAGIERLYLVSSGRRLAIANFLGAEEKANFAKALMAALDAARRGPLYPA”, for which the protein production result was “failed”.

Consider “MAILSYISATSTTPPIPQDQSPNSRLPTKIILPNKKPEKWSTGVAPGEYGGPPTTTKLRKYWGGEKEDPITSTDLIWNRDFMDQMKKLFDDPNDSSLDPSPSKEKSSGFLSFSRVMSLDSMDVDLSKELASSSKSVVKNRLDTSKSEAKKQMSKAIVSPKWKLAPTRREQEKWDRATKAATGGSDVMFRELRRPRGDPEVQAAKDREQYFKLKNKIQVLTLGIGGVGLVSAYISYTPEIALSFGAGLLGSLAYMRMLGNSVDAMADGARGVAKGAANQPRLLVPVVLVMIFNRWNAILVPEYGFMHLELIPMLVGFFTYKIATFFQAIEEAISITTQKPESISPDTQASD”, for which the protein production entry is given as “not failed”.

For “MAILVDVRAAREIQDGEAGCRWERPLALGQGAFYAATGAWPLVHMPSFVAVTGPKLEPWLVRTVGVLIGAIGGTLLSAGARRRITPEVRWLALASAAGIAAVELWYAGRRRRIAPVYLLDGAGELALAAAWAALGAGRRLRGGVGTVAGGRGRHGREEDAR”, the protein production result is on record as “failed”.

The values above are taken from a protein production outcome set (Wang et al. 2014).
